Experimental data taken from patent US20220195015A1 (published 2022).

Target: SARS-CoV-2 spike protein receptor binding domain (RBD) (SARS-CoV-2, UniProt P0DTC2 319-539)
Assay: ELISA on plate-coated RBD

| Binder | EC50 [ng/mL] |
| --- | --- |
| C046 (antibody, V domains shown) VH: EVQLVESGGGLAQPGRSLRLSCAASGFTFDDYAMHWVRQAPGKGLEWVSGINWNSGSLGYADSVKGRFTISRGIAKNSLYLQMNSLRPEDTAFYYCAKAGVRGIAAAGPDLNFDYWGQGTLVTVSS VL: EIVLTQSPATLSLSPGERATLSCRASQSVSSYLAWYQQKPGQAPRLLIYDASNRATGIPARFIGSGSGTDFTLTISSLEPEDFAVYYCQQRITFGQGTRLEIK | 4.02 |
| C048 (antibody, V domains shown) VH: VQLQESGPGLVKPSETLSLTCAVSGGSVSSGNYYWNWIRQPPGKGLEWIGYIYYSGSTNYNPSLKSRVTISVDTSKNQFSLKLNSVTAADTAVYHCARETYYYDSSGYYISDAFDIWGQGTMVTVSS VL: not shown | 4.8 |
| C047 (antibody, V domains shown) VH: QVQLQESGPGLVKPSETLSLTCTVSGGSISSTTYYWDWIRQSPGKGLEWIGSIFYTGITYYSPSLKSRVTISVDTSKNQFSLRLNSMTAADTAVYYCARRLRQLWFGPWFDPWGQGTLVTVSS VL: QSALTQPPSASGSPGQSVTISCTGTRSDVGDYNYVSWYQQHPDKAPKLIIYEVTKRPSGVPDRFSGSKSGNTASLTVSGLQAEDEADYYCSSYAGSNNVMFGGGTKLTVL | 11.1 |
| C710 (antibody, V domains shown) VH: QVQLQESGPGLVKPSETLSLTCIVSGGSINSTTYYWDWIRQSPGKGLEWIGSIFYTGITYYSPSLKTRVTISVDTSKNQFSLRLNSMTAADTAVYYCARRLRQLWFGPWFDPWGQGTLVTVSS VL: QSALTQPPSASGSPGQSVTISCTGTRSDVGDYNYVSWYQQHPDKAPKLIIFEVTKRPSGVPDRFSGSKSGNTASLTVSGLQAEDEADYYCSSYAGSSNVMFGGGTKLTVL | 17.8 |

Target: SARS-CoV-2 spike protein receptor binding domain (RBD), wild type (SARS-CoV-2, UniProt P0DTC2 319-539)
Assay: ELISA, RBD protein coated on plate, antibody titrated

| Binder | EC50 [ng/mL] |
| --- | --- |
| C512 (antibody, V domains shown) VH: QVQLQESGPGLVKPSGTLSLTCAVSAGSISSNNWWSWVRQPPGKGLEWIGEVYHNGNINYNPSLKSRVTLSVDKSKNQFSLKLSSVTAADTAVYYCAKGGDRAMGPEYFDSWGQGTLVTVSS VL: QSALTQPASVSGSPGQSITISCTGTSSDVGANNYVSWYQQHPGKAPKLMIYDVNERPSGVSNRFSGSKSGNTASLTISGLQTEDEADYYCSSFASSSTLLFGGGTKLTVL | 1.68 |
| C516 (antibody, V domains shown) VH: QVQLVQSGAEVKKPGSSVKVSCKASGGTFSSYAISWVRQAPGQGLEWMGRIIPMLVIATYARKFQGRVTITADKSTSTAYMELSSLRSEDTAVYYCARGVVAATPGNFDIWGQGTMVTVSS VL: EIVMTQSPATLSVSPGERATLSCRASQSVSSNLAWYQQKPGQAPRLLIYGASTRATGIPARFSGSGSGTEFTLTISSLQSEDFAVYYCQQYNNGLTFGGGTKVEIK | 5.72 |
| C530 (antibody, V domains shown) VH: QVQLVESGGGVAQPGRSLRLSCAASGFTFSRYGMHWVRQAPGKGLEWVAVIWHDGSDKYCADFVKGRFTISRDNSKNTLYMQMDSLRAEDTAVYYCARGGRPDHETGIAVLGEYYFDSWGQGTLVTVSS VL: SYELTQPPSVSVSPGQTARITCSGDAFPLQYGYWYQQKPGQAPVLVIYKDKERPSGISERFSGSSSGTTVTLTISGVQAEDEADYYCQSADTNGVVFGGGTSLTVL | 10.5 |
| C528 (antibody, V domains shown) VH: EVQLVESGGGLVQPGGSLRLSCAASGFTFRNYDMHWVRQVAGKGLEWVSAIGTSGDTYYPDSVKGRFTISRENAKNSVYLQMNNLRAGDTAVYFCVRDREISGWTGWYFDLWGRGTLVTVSS VL: DIQMTQSPSSLSASVGDRVTITCRASQTIHNYLNWYQQIPGKAPRLLIYATNTLQSGVPSRFSGSGSGTDFTLTITGLQPEDFATYYCQQSYSTPPITFGQGTRLEIK | 5.66 |
| C523 (antibody, V domains shown) VH: QVQLQESGPGLVKPSETLSLTCTVSGASISSHYWSWIRQPPGKGLEWIGYIHYIGSTNYNPSLKSRVTILLDTSKNQFSLRLRSVTAADTAVYYCARGWPYCGVDCYSGFDYWGQGTLVTVSS VL: not shown | 9.08 |
| C597 (antibody, V domains shown) VH: QVQLVQSGPEVKKPGTSVKVSCKASGFTFTNSAVQWVRQSRRQRLEWIGWIVVGSGNTNYAQKFQERVTITRDMSTSTAYMELSSLRSEDTAVYYCAAVDCNSTSCYDAFDIWGQGTMVTVSS VL: EIVLTQSPGTLSLSPGERATLSCRASQSFRSSYLAWYQQKPGQAPRLLIYGASSRATGIPDRFSGSGSGSDFTLTISRLEPEDFAVYYCQQYDISPWTFGQGTKVEIK | 3.77 |
| C598 (antibody, V domains shown) VH: QVQLVQSGPEVKKPGTSVKVSCKASGFTFSSSAVQWVRQARGQRLEWIGWIVVGSGNTNYAQKFQERVTITRDMSTSTAYMELSSLRSEDTAVFYCAAPYCNVTTCFDGFNIWGRGTMVTVSS VL: EIVLTQSPGTLSLSPGERATLSCRASQSVRSSYFAWYQQKPGQAPRLLIYAASSRATGIPDRFSGSGSGTDFTLTISRLEPEDFALYYCQQYGSSPWTFGQGTKVEIK | 3.78 |
| C532 (antibody, V domains shown) VH: EVQLVQSGAEVKKPGESLKISCKGSGYRFTNYWIGWVRQMPGKGLEWIGNIFPGDSDSRYSPSFQGQVTISVDMSITTAYLHWSSLKASDTAIYYCARLSERWYSPFDSWGQGTLVTVSS VL: EIVMTQSPATLSVSPGERATLSCRASQSVSSNLAWYQQKPGQAPRLLIYGASTRATGFPARFSGSGSGTEFTLTISSLQSEDFAVYFCQQYNNWPPGGFTFGPGTKVDIK | 1 |
| C525 (antibody, V domains shown) VH: EVQLVESGGRLVQPGRSLRLSCAASGFTFDDYAIHWVRQAPGKGLEWVSGISWNSGSIGYADSVRGRFTISRDNAKNSLYLQMNSLRAEDTALYYCAKGLDSSSSASPDYWGQGTLVTVSS VL: DIQMTQSPSSVSASVGDRVTITCRASQDISSWLAWYQQKPGKAPKLLIYLASSLQSGVPSRFSGSGSGTDFILTISSLQPEDFGTYYCQQGNSFPLTFGGGTKVEIK | 10.6 |
| C527 (antibody, V domains shown) VH: QVQLVESGGGVVQPGRSLRLSCAASGFTFSSYGMHWVRQAPGKGLEWVALIGYDGTDKYYAENVKGRFTISRDNSKNTLFLQMNSLRGGDTAVYLCARDGIPFRYGMDVWGQGTTVTVSS VL: DIQMTQSPSTLSASVGDRVTITCRASQSIDIWLAWYQQKPGKAPKFLIHKASTLESGVPSRFSGSGSGTEFTLTISSLQPDDFATYYCQHYHSYSGTFGQGTKVEIK | 13.4 |
| C513 (antibody, V domains shown) VH: EVQLLESGGGLVQPGGSLRLSCVASGFSFSTYAMSWVRQAPGQGLEWVSTITGTSIGTYYADSVKGRFTISRDNSKNTVFLQMKSLRAEDAAVYYCANHPLASGDEYYYYYMDVWGKGTTVTVSS VL: EIVLTQSPDTLSLSPGERATLSCRASQSVHSKQLAWYQQKPGQAPRLLIYGASSRATGIPDRFSGSGSGTDFTLTISRLEPEDFAVYYCQQYGSIRALTFGGGTKVEIK | 1.31 |
| C515 (antibody, V domains shown) VH: EVQLVESGGGLVQPGGSLRLSCAASGFIVSSNYMSWVRQAPGKGLEWVSILYSGGSTYYADSVKGRFTISRDNSKNTLYLQMNSLRAEDTAVYYCARDLVVYGADYWGQGTLVTVSS VL: DIQLTQSPSFLSASVGDRVTITCRASQGISSYLAWYQQKPGKAPKLLIYAASTLQSGVPSRFSGSGSGTEFTLTISSLQPEDFATYYCQQLNSYPPPFGGGTKVEIK | 1.73 |
| C531 (antibody, V domains shown) VH: EVQLVESGGGLVQPGRSLRLSCVATGFTFDDFAMHWVRQAPGKGLEWVSGISWNGGIIGYVDSVKGRFTISRDNAKNSLYLQMNSLRPEDTALYYCVKGYRYYYDILTGYYNDAGAFDYWGQGTLVTVSS VL: DIQSTQSPSFLSASVGDRVAITCRASQGISSYLAWYQQKPGKAPKLLIYPASTLQSGVPSGFSGSGSGTEFTLTISSLQPEDFATYYCQQLNDYPFTFGPGTKVDIK | 6.84 |
| C524 (antibody, V domains shown) VH: EVQLVESGGDLIQPGGSLRLSCAASGFSVSNSYMSWVRQAPGKGLEWVSIIYSGGSTYYADSVKGRFTISRDNSKNTLYLQMNSLRAEDTAVYFCAKTPRGDYDSSGTSAYWGQGTLVTVSS VL: QLVLTQSPSASASLGASVNLTCTLSSGHSSYAIAWHQQQPEKGPRFLMKLSSDGSHNKGDGIPDRFSGSSSGAERFLTISSLQSEDEADYYCQTWGIGSDWVFGGGTKLTVL | 5 |
| C529 (antibody, V domains shown) VH: EVQLLESGGGLVQPGGSLRLSCAASGFTFNNYAMNWVRQAPGRGLEWVSGISGSGANTYYADSVKGRFTISRDNPKNTLSLQMNSLRAEDTALYYCAKVLSPTYYDSWSGPDAFDFWGQGTMVTVSS VL: DIQMTQSPSTLSASVGDRVTITCRASQTISPWLAWYQQKPGKAPNLLIYKASSLESGVPSRFSGSGSGTEFTLTISSLQPDDFATYYCQQYNSYSSWTFGQGTKVEIK | 8 |
| C514 (antibody, V domains shown) VH: EVQLVESGGGLVQPGGSLRLSCAASEFIVTRNYMSWVRQAPGKGLEWVSLIYPGGSTFYADSVKGRFTISRDNSKNTLFLHMNSLRAEDTAVYYCARDLAGRLDYWGQGTLVTVSS VL: DIQMTQSPSSLSASVGDRVTITCQASQDINNFLNWYQQKPGKAPKLLIYDASNLETGVPSRFSGSGSGTDFTFTISSLQPEDIAIYYCQQYDSLSRLTFGGGTKVEIK | 0.82 |
| C517 (antibody, V domains shown) VH: EVQLVESGGGLVQPGGSLRLSCAASEFIVSRNYMSWVRQAPGKGLEWVSLIYSGGSTYYADSVKGRFTISRDNSKNTLYLQMNSLRAEDTAMYYCARDIAGRLDYWGQGTLVTVSS VL: DIQMTQSPSSLSASVGDRVTITCQASQDISKYLNWYQQKPGKAPKLLIYDASNLETGVPSRFSGSGSGTDFTFTISSLQPEDFATYYCQHYDSLSRLTFGGGTKVEIK | 0.87 |
| C526 (antibody, V domains shown) VH: QVQLVQSGAEVKKPGASVKVSCKASGHTFTTYYLHWVRQAPGQGLEWMGRIDPSGGSTTYAQKFQGRVTMTRDTSTSTVYMELSSLRSEDTALYYCARGGYCGSTSCSPDDYFDYWGQGTLVTVSS VL: SYELTQPPSVSVAPGKTARITCGGNNIGSKSVHWYQQKPGQAPVLVIYYDSDRPSGIPERFSGSNSGNTATLTISRVEAGDEADYYCQVWDSSSDHYYVFGTGTKVTVL | 18.2 |
